This data set is described as follows: soluble on expression in E. coli; label from the status in PepcDB or PDB records.
Take “MKQITIASRESKLALWQTNFVKNRIQLELNIPCEISTMKTQGDIILDQPLNKIGGKALFMKELEVAMLSNKADIAVHSLKDVPYQLPQGFCLAGFMPREDPRDAFVSNKYNSIDDLPKGAVVGTSSLRRKAQLLHYRDDLEIRDLRGNIQTRLSKLDNGDYDAIILASAGLIRLELVERITQFIPVEISLPAVGQGIVVIEALERDNDLLEKIQKLNCRESSRVATAERAFNQELKGGCHVAIGAYAELDNNQITLMAMVASSDGKKILKRKMIGDDPTKLGKLLAQEMIALGAYKILES”: the “soluble on expression in E. coli” value is reported as “not soluble”.

Regarding “MKQLKSLDSDLEKAIGRISGGLYIITAQKGEVKGAMLASWVSQASFNPPGFTVAVAKDRAIESLMQVGDRFVLNILEEGNYQILMKHFLKRFPPGADRFAGVKTQTASNGSPILTDALAYLECEVASRMECSDHWIVYSQVTNGRVAKAEGLTAVHHRKVGNYYLEHHHHHH”, the “soluble on expression in E. coli” value is listed as “not soluble”.

“MKQLSSFDIKACVRELKELEGGKVEKVYHHPPDEIRIRIYAGRKVDLVIEAGRRIHLTKFPKQAPRFPSAFAMLLRKHLEGARIKKIEQYDFDRVVVIEFERFGEIRRIVAELFSKGNVVLLNEENRVIMPLKHTIKVGELYRFPEQRERKDEDREVVRVLAMSGLGGLYAEEVCLRAGIDKKKKYAELSEDERKKIDEEIERLMNFTPKPQIILKDGDYLDVVPMDLLYYSNYEKKYFESFNDALDDYFSKKLAEMDELESMKSEELEKLKKRLEIQKESLRKFEDEAESFRKIGDAIYENYQMVEKIIEAFRAARERKSWDEIKEIVARDEKLKKLVKAIKPEKNAIVVKVGDFDVELEIKKSIHENADLYYEKAKKAREKAEGVKRAIEATLREMERVEEKLEKKLVTSIKVRRKKEWYE”: the “soluble on expression in E. coli” value is given as “not soluble”.

In the case of “MKQNKLHYTTMIMTQFPDISIQSVESLGEGFRNYAILVNGDWVFRFPKSQQGADELNKEIQLLPLLVGCVKVNIPQYVYIGKRSDGNPFVGYRKVQGQILGEDGMAVFPDDAKDRLALQLAEFMNELSAFPVETAISAGVPVTNLKNKILLLSEAVEDQVFPLLDESLRDYLTLRFQSYMTHPVYTRYTPRLIHGDLSPDHFLTNLNSRQTPLTGIIDFGDAAISDPDYDYVYLLEDCGELFTRQVMAYRGEVDLDTHIRKVSLFVTFDQVSYLLEGLRARDQDWISEGLELLEEDKANNFGANSA”, the “soluble on expression in E. coli” value is listed as “not soluble”.

Consider “MKQPFERILREICFMVKVEGRKVLRDFGITPAQFDILQKIYFEGPKRPGELSVLLGVAKSTVTGLVKRLEADGYLTRTPDPADRRAYFLVITRKGEEVIEKVIERRENFIEKITSDLGKEKSSKILDYLKELKGVMERNFSKQ”, for which the “soluble on expression in E. coli” value was “soluble”.

For the sequence “MKQQAIDEQLRNAIEYTPEMFTQVPMLYINIEINNYPVKAFVDTGAQTTIMSTRLAKKTGLSRMIDKRFIGEARGVGTGKIIGRIHQAQVKIETQYIPCSFTVLDTDIDVLIGLDMLKRHLACVDLKENVLRIAEVETSFLSEAEIPK”, the “soluble on expression in E. coli” value is “soluble”.

Consider “MKRDAKDHARNRLMNFYIKKAPTYSAIVKIEHFENDAPSEAKDFEPLVVYSLNKKKRWEINQEFLDSSSEGDDSKSVIIDREIPDLYFAWWSLGNVHSHDCVNHSKPVNSSQIDNAKKEEKVVGYHIVRVPKNHKKVFDNKCIRYIGLRYPEFLGYSSKDWPALQYEMKELEEEHEELEKENASLEAESTETTKPTGFYNLDEHFVAKKQRKPKGWLTVE”, for which the “soluble on expression in E. coli” value was “not soluble”.

As to “MKREQVMGEGNYSLASHHIFGVDNANKMLFSPLDNAKNGMKIYLTDKNKVYTYEIREVKRVTPDRVDEVDDRDGVNEITLVTCEDLAATERIIVKGDLKETKDYSQTSNEILTAFNQPYKQFY”, the “soluble on expression in E. coli” value is “not soluble”.

With “MKRIGVLTSGGDSPGMNAAIRSVVRKAIYHGVEVYGVYHGYAGLIAGNIKKLEVGDVGDIIHRGGTILYTARCPEFKTEEGQKKGIEQLKKHGIEGLVVIGGDGSYQGAKKLTEHGFPCVGVPGTIDNDIPGTDFTIGFDTALNTVIDAIDKIRDTATSHERTWVIEVMGRHAGDIALYSGLAGGAETILIPEADYDMNDVIARLKRGHERGKKHSIIIVAEGVGSGVDFGRQIQEATGFETRVTVLGHVQRGGSPTAFDRVLASRLGARAVELLLEGKGGRCVGIQNNQLVDHDIAEALANKHTIDQRMYALSKELSI”, the “soluble on expression in E. coli” value is recorded as “soluble”.

In the case of “MKRILNYPGSKWGLADLIIENMPEHKSYLEPFCGSCAVFMNKQKATLETINDLDGRLVNLFKTMRDNPEELQYLIMHTLYSREEYMLSHEISSDSLEDARRMAVRLWFAVGGKTNANVGFRKNVSWNGPYNAYEWNDMYNRIGIAAARLKDAQIENVDAIKLIEQHNDKDTLIYCDPPYVATSLASSHYQHDFSLEQHKELLKVLKKHEGKVMLSGYESELYKQELSDWPALKTMTKVGITSEKKSDRQEIIWCNFEPPMQLNLFKEEQA”, the “soluble on expression in E. coli” value is given as “not soluble”.

For the sequence “MKRKIIVACGGAVATSTMAAEEIKELCQSHNIPVELIQCRVNEIETYMDGVHLICTTARVDRSFGDIPLVHGMPFVSGVGIEALQNKILTILQG”, the “soluble on expression in E. coli” value was “soluble”.

Regarding “MKRLRCIREIERQRGTRVIAMIHRQEALTFLGIPIYKFITIEDSEEILRAIRLTPEDMPIDLIIHTPGGLALASEQIALALKEHKAKTTVIIPHYAMSGGSLIALAADEIIMDKNAVMGPVDPQIGQYPAASILEAYYRKGEKVSDETLILVDISKKAIKQMEEFVYELLKDKYGDEKAKEIAKKLTSGTW”, the “soluble on expression in E. coli” value is recorded as “not soluble”.

Consider “MKRRLLCALLASTLAQPLTVRADLPDLGEISDASLSLSDEARIGRDALRAMREAGDVVDDPEVNAYLNDVGGRLAAAAAVPGVRFTYFCVADAGINAFAMPGGYVGINIGLMLASQSEGELAAVLGHETAHVAQRHIARMQAANSAASPLLLLGTIVAAALAAKAGSGDGAMGAVSAGMGLSISRQLAFSRDFEREADRVGMQYMSAAGFDVRNMAAFFQRLEQASRYSDNTAYAFLRTHPVTLERISEAQNRALDYPVRMRADSVDYLLVREKLRVLTLSPEEAVSHYSSALQRGLYLNEGANWYGLARAKLLQHDRAGASEALAKARAKLPDNPMLYGLEVEIARDGRDWAAAARAARNGLSAFPRSVSLQLAQLDVALDGGDRKAAQAQLRQLLDSRRDDPALYRREAKLYADKDPLRYHAALGNAFYYEQRYGAALEQYQLAGKAKGDDFYLRSMLEARLREVEKLAKEERKAARNLEHHHHHH”, for which the “soluble on expression in E. coli” value is recorded as “soluble”.

For the sequence “MKRTIILFDINETVLNLSALKPKFKATFGDESVMATWFSMLLHSSTVCIMTSVKTDFATLAGTMLESIAARMSIKLSKAARDDILAGFANLPPHNDIKPALAQLKSAGFRTVAFSNSSLNLISTQITNAGLKEYFDDIISVEETGSFKPDPTVYKFAAKRLNQPLESLRLVATHDWDTHGALSVEMRAAYINRSGAVYHPLYRQPDIYATTMEDIVKLIIEKDD”, the “soluble on expression in E. coli” value is on record as “not soluble”.

“MKRTVTVKLQPSKAQEETLKELAIISSKAWNKVNYLRRQEFFEGKPVDFLKTEKIVYEEFKSEIGSATVQQICRKNADAWRSFFSLIRSKRNGELPKWFKPKPPEYVKEGGLIILRNDQYKIEGNKLILKGLGKFKRLEVQFKGRIHLKGKQGRLEITFDPIRRKWYAHISYTVKEKLYGGEWVEVLRQPLGNLSAGIDLGVNNLMAVYVENGESFLVNGRPLKSIDFYWRKRIAEYQSKLNKSGVKKGRKLSKMHQKAKLQAKHYINTAIRRTVEKLYHLGVSRIVVGYPKGISRNSDKGKKQNYLLSHVWRFNYVIKRLREVAEEYGIQVLIVDEAFTSKLCPVCGKPHKGQGLFEDYLSVPRRGLPLMPTWLELSTFLEHHHHHH”: the “soluble on expression in E. coli” value is recorded as “soluble”.

“MKRVRLQEVAQVAGVSLGLASAVLNGRHVRARPETVERIREAAQRLGYVPDRMAQAMRWGRTGIIALVVPNFANPYYSALAVEVQRAAWEADLEVLVYANPTEDLAQVSRAVSARRVDGGIIVVSHYTPEELKAHLPLEIPWVGVGHALEPLPFDRVSFKDKEAAMDAVRYLADKGYRRIAHLAGPAPSPTAKARLEGYLEAVSALGMPALVQEGTFRYGDNQRALQTLLGWRADALLAGNDLMALEALAFLQDRGVPVPQGMAVVGFDGIPMGEWVRPQLTTIVRSPRASAQAALARLLARLEGAGEPPQEVWLDTSLRPGDSA”: the “soluble on expression in E. coli” value is on record as “soluble”.
